Data: patent publication US5780296

Tested on: T1, REC2 recombinase (Ustilago maydis)
T1 sequence: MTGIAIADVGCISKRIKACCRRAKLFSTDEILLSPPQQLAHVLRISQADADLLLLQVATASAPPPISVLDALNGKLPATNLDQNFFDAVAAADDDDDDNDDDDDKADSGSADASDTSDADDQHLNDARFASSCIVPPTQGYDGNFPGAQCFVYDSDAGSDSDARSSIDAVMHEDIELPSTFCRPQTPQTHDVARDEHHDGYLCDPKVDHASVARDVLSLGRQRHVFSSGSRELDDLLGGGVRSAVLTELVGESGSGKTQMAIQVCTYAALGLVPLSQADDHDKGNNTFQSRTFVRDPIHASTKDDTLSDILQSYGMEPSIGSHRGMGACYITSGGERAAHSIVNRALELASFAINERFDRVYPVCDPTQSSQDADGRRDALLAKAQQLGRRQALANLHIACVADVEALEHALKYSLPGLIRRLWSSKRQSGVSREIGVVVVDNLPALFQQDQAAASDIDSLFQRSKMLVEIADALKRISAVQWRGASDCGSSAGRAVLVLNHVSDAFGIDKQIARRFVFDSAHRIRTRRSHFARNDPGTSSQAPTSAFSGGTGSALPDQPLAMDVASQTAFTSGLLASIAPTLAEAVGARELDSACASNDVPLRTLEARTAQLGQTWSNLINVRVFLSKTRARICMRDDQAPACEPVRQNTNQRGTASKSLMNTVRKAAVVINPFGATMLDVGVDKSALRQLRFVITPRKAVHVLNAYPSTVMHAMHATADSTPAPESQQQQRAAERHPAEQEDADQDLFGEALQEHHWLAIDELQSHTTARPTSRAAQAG
Details: DNA-dependent ATPase turnover; 10 mM MgCl2, pH 7.5, 37 C

**Q.** M13 single-stranded circular DNA was tested. Which activity did it give?
**A.** 5.3 min⁻¹
